From the Human Domainome abundance scans (Beltran et al. 2025)
± gives the uncertainty stated by the source.

B1: POU domain, class 4, transcription factor 2, residues 256 to 327; numbered along this chain, Q12837 (parent)
chain: RDLEAFAERFKQRRIKLGVTQADVGSALANLKIPGVGSLSQSTICRFESLTLSHNNMIALKPILQAWLEEAE

Variants of: B1
Test: abundance fitness (aPCA) (normalised: wild type 0, dead -1); higher = more abundant; growth selection in yeast, the domain comes from the species named
Settings: Homo sapiens

Abundance fitness, by site and new letter:
I58: Y -0.461 ± 0.16; N -0.077 ± 0.28; F -0.287 ± 0.11; V -0.028 ± 0.081; H -0.237 ± 0.23; P -0.854 ± 0.17; A -0.139 ± 0.079; D -0.615 ± 0.27; W -0.152 ± 0.061; E -0.258 ± 0.12; C -0.374 ± 0.21; T -0.235 ± 0.14; G -0.287 ± 0.076; M -0.118 ± 0.12; L 0.02 ± 0.056; R 0.07 ± 0.045; S -0.017 ± 0.057; K 0.063 ± 0.076
T43: D -0.114 ± 0.13; C -0.232 ± 0.096; S -0.353 ± 0.078; W -0.282 ± 0.092; L -0.053 ± 0.051; H -0.274 ± 0.17; F -0.289 ± 0.21; M -0.068 ± 0.16; G -0.792 ± 0.1; A -0.271 ± 0.074; R -0.632 ± 0.072; I 0.207 ± 0.23; V -0.01 ± 0.064; K -0.624 ± 0.17; Q -0.452 ± 0.17; E -0.574 ± 0.3
K61: G -0.47 ± 0.1; I -0.328 ± 0.099; F -0.38 ± 0.16; E -0.32 ± 0.095; H -0.137 ± 0.12; A -0.178 ± 0.07
T51: V -0.367 ± 0.079; S 0.018 ± 0.028; Q -0.041 ± 0.086; M 0.077 ± 0.096; F -0.414 ± 0.11; H -0.232 ± 0.36; R -0.111 ± 0.067; G -0.181 ± 0.058; K 0.264 ± 0.16; Y -0.567 ± 0.21; W -0.78 ± 0.37; E -0.059 ± 0.17; C -0.077 ± 0.11; L -0.256 ± 0.064; A -0.035 ± 0.033; D -0.295 ± 0.39; P -1.08 ± 0.32
R46: M -0.12 ± 0.11; L -0.22 ± 0.062; D 0.094 ± 0.14; T -0.531 ± 0.19; P -1.01 ± 0.13; Q 0.122 ± 0.095; V -0.899 ± 0.22; W -0.567 ± 0.16; K 0.033 ± 0.12; H -0.118 ± 0.2; S 0.076 ± 0.045; A -0.027 ± 0.11; C -0.059 ± 0.082
F47: D -0.82 ± 0.35; N -0.871 ± 0.37; W -0.836 ± 0.12; M -0.781 ± 0.17; Q -0.59 ± 0.18; P -0.897 ± 0.19; T -0.922 ± 0.14; G -0.834 ± 0.16; Y -0.53 ± 0.15; I -0.67 ± 0.38; S -0.996 ± 0.15; R -0.864 ± 0.094; C -0.214 ± 0.24; V -1.06 ± 0.3; A -0.278 ± 0.17
N55: K -0.016 ± 0.15; M -0.253 ± 0.15; L -0.121 ± 0.055; T -0.024 ± 0.074; G -0.009 ± 0.098; W -0.403 ± 0.083; Q 0.073 ± 0.088; R -0.055 ± 0.043; A 0.137 ± 0.086; E -0.184 ± 0.39; H -0.326 ± 0.14; I -0.197 ± 0.13; V -0.013 ± 0.1; F -0.396 ± 0.13; S 0.013 ± 0.051; D -0.009 ± 0.12
Q41: I -0.275 ± 0.14; F -0.335 ± 0.12; V -0.187 ± 0.077; G 0.041 ± 0.048; R -0.061 ± 0.06; T 0.077 ± 0.087; S -0.044 ± 0.061; H 0.089 ± 0.11; E 0.111 ± 0.076; C -0.37 ± 0.11; P -0.046 ± 0.063; K 0.054 ± 0.15; L -0.289 ± 0.062; W -0.06 ± 0.068; D -0.058 ± 0.098
M57: W -0.374 ± 0.075; K -0.892 ± 0.34; Q -0.859 ± 0.21; S -0.602 ± 0.081; A -0.306 ± 0.13; C -0.251 ± 0.11; E -0.565 ± 0.086; V -0.54 ± 0.11; F -0.428 ± 0.26; T -0.701 ± 0.13; H -0.547 ± 0.16; G -0.41 ± 0.075; L -0.157 ± 0.062; R -0.904 ± 0.088; P -0.924 ± 0.11
C45: L -0.157 ± 0.057; H 0.039 ± 0.11; E 0.156 ± 0.14; A 0.036 ± 0.071; M -0.251 ± 0.33; Q 0.119 ± 0.11; I -0.261 ± 0.15; T -0.161 ± 0.11; R -0.008 ± 0.059; K -0.098 ± 0.14; D -0.135 ± 0.11; V -0.004 ± 0.084; S 0.065 ± 0.059; Y 0.26 ± 0.39; F -0.041 ± 0.19; G 0.02 ± 0.069; N 0.091 ± 0.13; W -0.431 ± 0.11
L50: H -0.057 ± 0.081; R -0.077 ± 0.055; A 0.005 ± 0.061; F -0.088 ± 0.11; C -0.029 ± 0.069; W -0.791 ± 0.19; S 0.012 ± 0.066; K -0.128 ± 0.25; N 0.161 ± 0.076; E -0.322 ± 0.24; G 0.06 ± 0.046; M -0.003 ± 0.15; Y -0.478 ± 0.37; I -0.361 ± 0.18; D -0.196 ± 0.13; P -0.867 ± 0.12; T -0.147 ± 0.094
I44: F -0.913 ± 0.41; R -0.973 ± 0.22; M -0.87 ± 0.18; C -0.643 ± 0.33; A -1 ± 0.17; L -0.392 ± 0.087; W -1.03 ± 0.37; S -0.963 ± 0.28; V -0.168 ± 0.075; Y -0.019 ± 0.39; P -0.923 ± 0.17; K -0.065 ± 0.23; D -0.771 ± 0.4; E -0.652 ± 0.37
S42: W -0.359 ± 0.12; V -0.113 ± 0.057; L -0.152 ± 0.062; F -0.494 ± 0.12; K 0.068 ± 0.27; P -0.381 ± 0.059; C -0.325 ± 0.089; Q -0.084 ± 0.11; R -0.085 ± 0.068; T -0.054 ± 0.081; E 0.107 ± 0.13; N -0.28 ± 0.15; H 0.085 ± 0.076; G -0.11 ± 0.068; I -0.272 ± 0.39
N56: W -0.057 ± 0.13; L 0.07 ± 0.077; H 0.128 ± 0.16; Y -0.248 ± 0.45; V 0.083 ± 0.2; K 0.048 ± 0.17; Q 0.275 ± 0.39; A -0.041 ± 0.094; P -0.52 ± 0.082; R -0.134 ± 0.084; T -0.023 ± 0.25; C 0.146 ± 0.12; S 0.077 ± 0.078; D 0.281 ± 0.31; F -0.149 ± 0.24; G -0.024 ± 0.13; M -0.304 ± 0.31
L52: N -0.997 ± 0.18; G -0.679 ± 0.12; W -0.952 ± 0.22; D -0.472 ± 0.18; H -0.729 ± 0.28; M -0.324 ± 0.19; F -0.682 ± 0.21; E -0.732 ± 0.22; Q -1.08 ± 0.32; R -0.883 ± 0.12; A -0.822 ± 0.14; K -0.163 ± 0.17; T -0.683 ± 0.15; P -0.887 ± 0.12; S -0.849 ± 0.13
A59: Y -0.026 ± 0.095; L -0.091 ± 0.049; W -0.087 ± 0.074; M -0.003 ± 0.075; S -0.095 ± 0.051; C -0.431 ± 0.12; R -0.032 ± 0.043; V -0.207 ± 0.074; K -0.057 ± 0.14; H -0.249 ± 0.11; Q 0.062 ± 0.082; E -0.193 ± 0.17; I 0.027 ± 0.14; G -0.169 ± 0.097; T -0.038 ± 0.075
S49: L -0.297 ± 0.056; T -0.035 ± 0.12; W -0.485 ± 0.22; E 0.134 ± 0.14; I -1.03 ± 0.46; P -0.537 ± 0.099; M -0.492 ± 0.36; F -0.651 ± 0.24; G 0.055 ± 0.093; C -0.245 ± 0.14; H -0.587 ± 0.3; N -0.065 ± 0.19; D -0.106 ± 0.17; R 0.032 ± 0.07; K 0.069 ± 0.3
L39: Q -0.732 ± 0.17; R -0.718 ± 0.1; Y -0.53 ± 0.16; W -0.387 ± 0.12; T -0.204 ± 0.096; S -0.304 ± 0.062
S40: N -0.108 ± 0.41; R -0.312 ± 0.059; C -0.131 ± 0.084; G 0.014 ± 0.067; A -0.203 ± 0.056; P -0.193 ± 0.028; M -0.723 ± 0.42; V -0.385 ± 0.076; W -0.779 ± 0.18; E -0.15 ± 0.11; T 0.092 ± 0.1; L -0.671 ± 0.088; D 0.016 ± 0.3; Q -0.293 ± 0.19; Y -0.685 ± 0.2; H -0.228 ± 0.09
S53: A -0.163 ± 0.046; L -0.729 ± 0.1; M -0.371 ± 0.23; D 0.043 ± 0.1; N -0.605 ± 0.29; K -0.738 ± 0.35; G -0.102 ± 0.059; C -0.514 ± 0.18; F -0.882 ± 0.2; E -0.066 ± 0.12; Y -0.556 ± 0.18; V -0.492 ± 0.11; H -0.376 ± 0.15
H54: I -0.047 ± 0.18; W -0.119 ± 0.088; A -0.005 ± 0.065; R 0.081 ± 0.047; E -0.3 ± 0.34; L -0.042 ± 0.049; S -0.145 ± 0.068; P -0.079 ± 0.051; M 0.005 ± 0.18; T 0.06 ± 0.087; F -0.086 ± 0.11; Q 0.034 ± 0.06; N -0.138 ± 0.1; G -0.314 ± 0.064; D -0.183 ± 0.21
L60: M -0.038 ± 0.049; F -0.29 ± 0.14; T -0.436 ± 0.14; C -0.12 ± 0.07; R -0.607 ± 0.056; I 0.201 ± 0.28; P -0.971 ± 0.23; H -0.944 ± 0.47; E -0.866 ± 0.21; Y -0.081 ± 0.31; G -0.713 ± 0.13; A -0.147 ± 0.11; D -0.614 ± 0.21; N -0.682 ± 0.25; W -0.729 ± 0.14; S -0.77 ± 0.11; Q -0.843 ± 0.16
E48: Q -0.833 ± 0.15; W -1.09 ± 0.24; G -0.594 ± 0.12; S -0.644 ± 0.11; A -0.802 ± 0.13; R -0.463 ± 0.071; V -1.17 ± 0.26; H -0.818 ± 0.36; P -0.889 ± 0.17; L -0.93 ± 0.17
